Blank lines part the entries; values can stand above or below the binder they belong to.
Molecular target: T1, FKBP-NFAST (UniProt P62942 2-108)
T1 construct: Expressed in HEK293T cells; also called cmyc-FKBP-linker-NFAST; pAG149; not shown: c-myc tag
Assay: split-FAST fluorescence complementation, confocal imaging of HEK293T cells, 100 nM rapamycin, HMBR or HBR-3,5DOM
Experimental: FIG. 5A-B show HEK293T cells co-expressing FKBP-NFAST and FRB-CFASTn (n=10 or 11) which were labeled with 5 μM HMBR (FIG. 5A) or 10 μM HBR-3,5DOM (FIG. 5B) and imaged before and after addition of 100 nM rapamycin. Scale bars 10 μm. […] Cells expressing FAST were used as control. HMBR concentration was 10 μM. Excitation at 488 nm at 6.3 kW/cm2. Six cells were analyzed per condition. […] Scale bars 20 μm. […] Scale bars 20 μm.

T1 sequence (P62942 other isoform, or with tags, fused parts or gaps): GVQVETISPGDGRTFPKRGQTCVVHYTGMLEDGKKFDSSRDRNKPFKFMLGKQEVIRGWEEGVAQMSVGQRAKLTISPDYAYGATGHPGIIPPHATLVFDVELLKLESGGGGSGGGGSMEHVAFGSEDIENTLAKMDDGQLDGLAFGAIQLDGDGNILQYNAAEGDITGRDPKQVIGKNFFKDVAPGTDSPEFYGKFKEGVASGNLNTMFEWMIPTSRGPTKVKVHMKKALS

binding result: binds
B1: FRB-CFAST11 (other)
chain: ILWHEMWHEGLEEASRLYFGERNVKGMFEVLEPLHAMMERGPQTLKETSFNQAYGRDLMEAQEWCRKYMKSGNVKDLTQAWDLYYHVFRRISKSGGGGSGGGGSGDSYWVFVKRV
notes: Expressed in HEK293T cells; also called cmyc-FRB-linker-CFAST(115-125); pAG152; not shown: c-myc tag

binding result: binds
B2: FRB-CFAST10 (other)
chain: ILWHEMWHEGLEEASRLYFGERNVKGMFEVLEPLHAMMERGPQTLKETSFNQAYGRDLMEAQEWCRKYMKSGNVKDLTQAWDLYYHVFRRISKSGGGGSGGGGSGDSYWVFVKR
notes: also called FRB-CFASTn (n=10)
